From paper PMC11408855, “The structure of the SufS–SufE complex reveals interactions driving protected persulfide transfer in iron-sulfur cluster biogenesis” (The Journal of Biological Chemistry, 2024)
Where a chain is given by its changes, count along the chain named. Names and notes keep the numbering of the source.

How the values were obtained:
Settings in all cases: both partners purified
[1] = target: T1, EcSufS, C-terminal his-tagged (wild type) (Escherichia coli, UniProt P77444 1-406, PLP (pyridoxal 5'-phosphate) cofactor); test: fluorescence polarisation; 100 nM BODIPY-FL-labeled EcSufE titrated with EcSufS; 50 mM Mops pH 8.0, 150 mM NaCl, 0.1 mg/ml bovine serum albumin, 25 °C, 30 min; presence of 500 μM cysteine; apparent KD
T1 construct: EcSufS, cysteine desulfurase SufS of Escherichia coli, UniProt P77444; the gene was cloned; also called WT EcSufS; cysteine desulfurase SufS; source: E. coli BL21(DE3)Δsuf, pET44, autoinduction, purified (Ni2+ HisTrap HP); not shown: His tag, C-terminal, kept
T1 sequence: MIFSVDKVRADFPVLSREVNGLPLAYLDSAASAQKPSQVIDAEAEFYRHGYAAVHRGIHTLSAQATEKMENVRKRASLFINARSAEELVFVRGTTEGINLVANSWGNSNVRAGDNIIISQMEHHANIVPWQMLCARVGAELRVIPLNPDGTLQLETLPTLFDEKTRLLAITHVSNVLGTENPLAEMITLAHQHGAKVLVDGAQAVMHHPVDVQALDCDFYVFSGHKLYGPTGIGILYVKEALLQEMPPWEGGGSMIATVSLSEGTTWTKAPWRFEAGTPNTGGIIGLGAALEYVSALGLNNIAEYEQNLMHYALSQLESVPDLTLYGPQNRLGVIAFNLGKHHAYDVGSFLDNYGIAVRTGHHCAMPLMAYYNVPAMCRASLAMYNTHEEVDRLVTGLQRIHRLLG

[2] = target: T2, S349A EcSufS, C-terminal his-tagged (Escherichia coli, UniProt P77444 1-406, S349A, PLP (pyridoxal 5'-phosphate) cofactor); test: fluorescence polarisation; 100 nM BODIPY-FL-labeled EcSufE titrated with EcSufS; 50 mM Mops pH 8.0, 150 mM NaCl, 0.1 mg/ml bovine serum albumin, 25 °C, 30 min; absence of cysteine; apparent KD
T2 construct: EcSufS of Escherichia coli, UniProt P77444, with S349A; also called S349A SufS; source: E. coli BL21(DE3)Δsuf, pET44, autoinduction, purified (Ni2+ HisTrap HP); not shown: His tag, C-terminal, kept
T2 sequence: T1 sequence with S349A

[3] = target: T3, H343A EcSufS, C-terminal his-tagged (Escherichia coli, UniProt P77444 1-406, H343A, PLP (pyridoxal 5'-phosphate) cofactor); test: as above
T3 construct: EcSufS of Escherichia coli, UniProt P77444, with H343A; also called H343A SufS; source: E. coli BL21(DE3)Δsuf, pET44, autoinduction, purified (Ni2+ HisTrap HP); not shown: His tag, C-terminal, kept
T3 sequence: T1 sequence with H343A

[4] = target: T4, D346A EcSufS, C-terminal his-tagged (Escherichia coli, UniProt P77444 1-406, D346A, PLP (pyridoxal 5'-phosphate) cofactor); test: as above
T4 construct: EcSufS of Escherichia coli, UniProt P77444, with D346A; also called D346A SufS; source: E. coli BL21(DE3)Δsuf, pET44, autoinduction, purified (Ni2+ HisTrap HP); not shown: His tag, C-terminal, kept
T4 sequence: T1 sequence with D346A

B1: BODIPY-FL-labeled C51A/E107C EcSufE (natural protein, Escherichia coli)
chain: MALLPDKEKLLRNFLRCANWEEKYLYIIELGQRLPELRDEDRSPQNSIQGAQSQVWIVMRQNAQGIIELQGDSDAAIVKGLIAVVFILYDQMTPQDIVNFDVRPWFCKMALTQHLTPSRSQGLEAMIRAIRAKAAALS
modifications: BODIPY-FL maleimide label (labeling efficiency 60 to 80%)
notes: EcSufE, transpersulfurase SufE of Escherichia coli, UniProt P76194, with C51A and E107C; also called "WT" EcSufE (double mutant background); C51A/E107C EcSufE control
B1 showed a Kd [1] of 600 nM, a Kd [2] of 2200 nM and a Kd [3] of over 20000 nM. The Kd [4] was over 40000 nM.
